{"source": "patent US20110027794", "key": {"[1]": {"test_system": "unnamed basic selection target protein (pI 9, 9 kDa)", "assay": "SELEX", "settings": "2'-F at all nucleotides; 0.89% bound with protein vs 0.48% without after 4 rounds; 20 mM Tris pH 7.4, 150 mM NaCl, 4 mM KCl, 1 mM MgCl2, 1 mM CaCl2, 0.1% Tween-20, 37 C"}, "[2]": {"molecular_target": "DNase I (UniProt P00639)", "sequence (P00639 23-282)": "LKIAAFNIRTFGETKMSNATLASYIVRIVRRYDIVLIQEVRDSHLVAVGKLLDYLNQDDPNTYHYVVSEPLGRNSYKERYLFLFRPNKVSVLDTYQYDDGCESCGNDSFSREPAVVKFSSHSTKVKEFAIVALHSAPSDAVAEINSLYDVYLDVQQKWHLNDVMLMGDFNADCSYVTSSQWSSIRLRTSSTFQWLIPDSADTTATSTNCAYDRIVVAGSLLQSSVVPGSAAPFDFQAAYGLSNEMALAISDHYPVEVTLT", "assay": "cleavage_in_vitro", "settings": "2'-F at all nucleotides; 100 mM NaOAc, 5 mM MgCl2, 37 C, 5 min"}}, "data": [{"sequence": "GTGGAACCGACAGTGGTACGTGNNNNNNNNNNNNNNNNNNNNNNNNNNNNNNNNNNNNNNNNCACGAGTGAAGTCTGAGCTCC [BSA-1C FNA pool, selection round 4]", "values": [{"measurement": "binding signal (fold over no-protein control)", "setting": "[1]", "value": 1.85}]}, {"sequence": "NNNNNNNNNNNNNNNNNNNNNNNNNNNNNNNNNNNNNNNNCACGAGTGAAGTCTGAGCTCC", "values": [{"measurement": "binding signal (fold more stable than DNA)", "setting": "[2]", "value": "> 100"}]}]}
